In this assay the target is 重组HBx蛋白 (B基因型HBx, GenBank NO.AF100309.1, 大肠杆菌表达) (乙型肝炎病毒(HBV) B基因型). Description: ELISA, serial dilution of purified antibody on plates coated with immunogen HBx; positive threshold 0.3. Background: In an ELISA, binding on a coated surface is turned into a signal by an enzyme label.

B1: HBx单克隆抗体KY01 (antibody, mouse IgG1, V domains shown)
VH: EVQLQQSGPELVRPGASVKMSCKASGYTFTSYWMHWLKQRPGQGLEWIGMIDPSNSETRLNQKFKDKATLNVDKSSNTAYMQLSSLTSEDSAVYYCAYDGAYWGQGTLVTVSE
VL: DIVLTQSPASLAVSLGQRATISCRASESVDSYGNSFIHWYQQKPGQPPKLLIYRASNLESGIPARFSGSGSRTDFTLTINPVEADDVATYFCQQSNEDPRTFGGGTKLEIKR
As to B1, the 抗体滴度(效价) (dilution factor (1:n)) worked out at 2.5e+06.

Source of the values: patent CN106008708A.
